For data set [1], the system named is primary cells from healthy HLA-C*07:02+ human donors. The data set can be described thus: Co-culture with normal primary cells, IFNγ secretion. The format is cell-based. Particulars: pan T cells, non-pulsed primary cells vs MAGE-A1 peptide pulsed. The source says: Primary normal cells from C*07:02+ donors that were expanded, confirmed to maintain differentiation states, and frozen were obtained (Lonza). Tested samples include: Human umbilical vein endothelial cells (HUVEC (CC-2517)), lung small airway epithelial cells (SAEC (CC-2547)) and lung bronchial-tracheal epithelial cells (NHBE (CC-2540)).
Prior to co-culture assays, primary normal cells were thawed, washed, resuspended in RPMI media supplemented with IL-2, IL-7, and IL-15 and seeded in 96-well flat-bottom culture plates at a density of 200,000 cells/well and allowed to rest for 4 hours. Cells were pulsed with MAGE-A1 peptide for 1-2 hours or left un-pulsed in their respective media. HN-32-41 or untransduced (NTD) T cells were then added at a density of 100,000 cells/well in complete T cell media. 24 hours post co-culture, supernatants were collected and frozen at −80° C.). Supernatants were thawed and analyzed for IFN-γ levels by loading on a Simple Plex Human IFN-gamma (3rd Gen) Cartridge (ProteinSimple, San Jose, Calif.) using the Ella™ instrument.
For flow cytometry analysis (Cytoflex S™ instrument, Beckman Coulter), cell pellets were washed with FACS buffer (PBS, 0.5% BSA, 2 mM EDTA) and stained for activation-induced markers, including PE-conjugated anti-CD137 (Miltenyi), AF647-conjugated anti-CD69 (Biolegend), and BV421-conjugated anti-CD8 (BioLegend).

Data set [2] concerns the target T1, epitope from MAGEA1 presented by HLA C*07:02 (Homo sapiens, UniProt P10321+P43355, DEL298-309).
T1 construct: an individual 90-amino acid fragments representing the top-scoring MAGEA1 tile from the screen; expressed in transfected cells; host or cells: MHC monoallelic C*07:02 HEK293T cells, lentivirally transduced with the MAGEA1 90-mer
Briefly: Identification of MAGEA1-reactive TCRs from pool of TCR-transduced T cells (CD137/CD69 sorting, TCR sequencing). Conditions: target cells transduced with MAGEA1 90-mer. The format is cell-based. The source says: Ten orphan TCRs from this patient were pooled together to identify their cognate antigens using the genome-wide TargetScan technology. This screen identified MAGEA1 as a novel target. […] Note that the term “TCR32-39” may also be known as “TCR39” and the term “TCR32-41” may also be known as “TCR41”.
To identify the corresponding TCR from the pool of TCR-transduced T cells, Ml-IC monoallelic C*07:02 HEK293T cells engineered to express the MAGEA1 90mer were co-cultured with the pool of T cells at an E:T ratio of 1:1 for 16-24 hours. The T cells were mixed, collected by pipetting, and labeled with a CD137 microbead kit (Miltenyi) following the manufacturer's instructions. In brief, T cells were first stained with PE-labeled anti-CD137 and AF647-labeled anti-CD69 (BioLegend), washed, and then labeled with anti-PE microbeads. Labeled cells were enriched with an autoMACS® Pro separator (Miltenyi) and CD137 and CD69 double-positive cells were sorted on a MoFlo® Astrios™ Cell Sorter (Beckman Coulter). Genomic DNA was extracted from the sorted cells and the TCR expression cassette was PCR amplified and prepared for next generation sequencing (NGS).

The subject of the next data set is LAMB4-IR peptide. Briefly: Peptide validation of off-target with dilutions of cross-reactive peptide. The format is cell-based, human. Particulars: LAMB4-IR peptide below 2,000 ng/mL. As for the experimental part: MHC-Flurry (O'Donnell et al. (2020) Cell Systems 42-48.e7) was used to predict peptides from LAMB4-IR with high-affinity binding to C*07:02. Predicted high-binding peptides were synthesized (GenScript). Monoallelic C*07:02 HEK293T reporter cells were pulsed with serial dilutions 0-20,000 ng/ml of the top peptide candidate for 1 hour and then co-cultured with TCR-transduced T cells (HN-32-41) at an E:T ratio of ˜2:1. After 4 hours, the cultures were harvested by pipetting and fluorescence of the reporter was detected using a CytoFLE.X™ S instrument (Beckman Coulter).

For data set [3], the system named is C*07:02 HEK reporter cells that express the indicated full length proteins. The data set can be described thus: Full-length ORF validation of putative off-targets in C*07:02 HEK reporter cells. The data set is classed as cell-based, human. Conditions: co-culture with C*07:02 HEK reporter cells. As for the experimental part: Hit that validated as targets using 90-mers were advanced to testing against full protein open reading frames (ORFs). ORFs for TLE3 and SLC6A13 were cloned from the ORFeome Collaboration Library (Horizon). LAMB4 intron retention ORF was synthesized (GenScript). These clones were cloned into lentiviral over-expression vectors and delivered to C*07:02 HEK reporter cells by transduction followed by selection with puromycin. Cells were seeded a day before co-culture with T cells expressing HN-32-41 at an E:T ratio of ˜2:1. After 4 hours, the co-cultures were harvested by pipetting and fluorescence of the reporter was detected using a CytoFLEX™ S instrument (Beckman Coulter). The PIGO ORF clone was purchased from Genscript in pcDNA3.1 overexpression vector and delivered by transient transfection using FuGENE6 reagent (Promega). C*07:02 HEK reporter cells were seeded to adhere overnigth, then transiently transfected with the PIGO ORF. The media was refreshed then cells expant overnight. Cells were co-cultured with T cells expressing HN-32-41 at an E:T of ˜2:1. After 4 hours, the co-cultures were harvested by pipetting and fluorescence of the reporter was detected using a CytoFLEX™ S instrument (Beckman Coulter).

B1: TCR 32-41: T cell receptor recognizing MAGEA1 epitope presented by HLA-C*07:02; alpha TRAV27/TRAJ52, beta TRBV12-4/TRBJ1-4; wild type, HM and MGTM sequences listed (protein)
TCR alpha: QLLEQSPQFLSIQEGENLTVYCNSSSVFSSLQWYRQEPGEGPVLLVTVVTGGEVKKLKRLTFQFGDARKDSSLHITAAQPGDTGLYLCAGDESISYGKLTFGQGTILTVHPNIQNPEPAVYQLKDPRSQDSTLCLFTDFDSQINVPKTMESGTFITDKCVLDMKAMDSKSNGAIAWSNQTSFTCQDIFKETNATYPSSDVPCDATLTEKSFETDMNLNFQNLLVMVLRILLLKVAGFNLLMTLRLWSS
TCR beta: DAGVIQSPRHEVTEMGQEVTLRCKPISGHDYLFWYRQTMMRGLELLIYFNNNVPIDDSGMPEDRFSAKMPNASFSTLKIQPSEPRDSAVYFCASSFLGWNEKLFFGSGTQLSVLEDLRNVTPPKVSLFEPSKAEIANKQKATLVCLARGFFPDHVELSWWVNGKEVHSGVCTDPQAYKESNYSYCLSSRLRVSATFWHNPRNHFRCQVQFHGLSEEDKWPEGSPKPVTQNISAEAWGRADCGITSASYQQGVLSATILYEILLGKATLYAVLVSTLVVMAMVKRKNS
In the case of B1, the entries for the “reactivity to normal human cells (IFNγ secretion in culture supernatants)” value in data set [1] and in data set [1] (listed as TCR41) were “does not show reactivity to normal human cells” and “did not react with healthy human primary cells”, respectively. Besides, the results for the “recognition of MAGEA1 epitope / identification as MAGEA1-reactive TCR” value in data set [2] (listed as HN-32-41) and in data set [2] (listed as TCR 41) were “recognizing the same novel epitope from MAGEA1 presented by HLA C*07:02” and “hits”, respectively. Also, in the data set with LAMB4-IR peptide, the “reactivity to cross-reactive off-target peptide” value is reported as “poor reactivity”. The “reactivity to putative off-targets as full-length proteins (activation of the reporter, % IFP)” value in data set [3] was “no activation of the reporter, measured as % IFP, except for LAMB4-IR”; in data set [3] (listed as TCR41), “did not appreciably react with cells expressing putative off-targets”.

The values above are taken from US20230270832A1, “MAGEA1 IMMUNOGENIC PEPTIDES, BINDING PROTEINS RECOGNIZING MAGEA1 IMMUNOGENIC PEPTIDES, AND USES THEREOF” (TScan Therapeutics, Inc., priority 2021, published 2023).
